US20180319855A1, “GENETICALLY MUTATED AEQUORIN-BASED BIOSENSORS WITH EXTRA SENSITIVITY TO CALCIUM AND IMPROVED BIOLUMINESCENCE INTENSITY” (CENTRE NATIONAL DE LA RECHERCHE SCIENTIFIQUE (CNRS), priority 2015, published 2018)
Read-outs that look alike come from different tables or passages of the source.

What was measured:
[1] = Tsuzuki et al. 2005; cited from earlier work
[2] = Ca2+ sensitivity curves of reconstituted photoproteins (L/Lmax vs free Ca2+); assay type: biochemical; conditions: for EC50: read-out: Calcium sensitivity, EC50
Experimental: For in vitro reconstitution, the purified and concentrated samples of apoaequorin and redquorin mutant proteins were buffer-exchanged to 50 mM Tris-HCl (pH 7.5), 150 mM NaCl, 10 mM EGTA, 5 mM ß-mercaptoethanol, supplemented with 5 μM CLZ-f or CLZ-native and incubated overnight at 4° C., in the dark. The next day, samples were passed through molecular weight cut-offs (AmiconUitra MWCO, 10K and 50K, from Millipore), then resuspended in Zero-Ca^2+ buffer (30 mM MOPS, 100 mM KCl and 10 mM EGTA, pH 7.2) for calcium affinity, emission decay kinetics and spectral analysis assays. As for in cellulo reconstitution, HEK cells transiently expressing the proteins of apoaequorin and aporedquorin mutants were washed twice with Hank's Balanced Salt Solution (HBSS) and incubated in the dark, with 4 μM of the desired CLZ diluted in OptiMEM I medium (Gibco), for 2-3h at 37° C. and 5% CO2. Cells were washed once and maintained in HBSS at 37° C. for 20 min before the experiment.
Functional Analysis of Aequorin Mutants and Fusions Ca^2+ Sensitivity Curves.
Purified and reconstituted samples with CLZ-f or CLZ-native already buffered-exchanged to zero-calcium buffer ensured to minimize calcium contamination that could interfere with the measurements. Fifteen microliter aliquot of photoprotein samples (concentration range, 50 to 90 ng/μl) was placed in a home-made luminometer and mixed with 300 μl solution containing the desired concentration of free-Ca^2+. The solutions of EGTA-buffered with varying free-Ca^2+ prepared according to the manufacturer instruction for the kit (Molecular Probes, Invitrogen). Integration of the luminescence emission (per second) was measured for 20 seconds (background) before injecting a solution with known [free-Ca^2+] and lasted until stable or decaying signal (at final-phase) was obtained. At this point, 400 μl of a saturating calcium solution (30 mM MOPS, 100 mM CaCl2, pH 7.2) was rapidly injected (less than 30 ms) and light integration continued until all aequorin had been consumed and light intensity had gone back to background signal. Luminescence intensity (L) at different [Ca^2+] was taken as the response peak value in case of decaying signal or as the stable value in case of stable emission. Lmax, was measured by integrating all remaining luminescence signal from that moment (L value) to the end of the experiment. The EC50 values were extracted from a sigmoidal dose-response fit (variable slope) using GraphPad Prism software.

[3] = Thermostability: relative bioluminescence activity after 30 min incubation; assay type: physicochemical; conditions: CLZ-f
Experimental: Thermostability of aequorin and redquorin mutant with increased affinity for calcium were compared to wt-aequorin (FIG. 5). The purified photoprotein samples were reconstituted with CLZ-f (as detailed earlier) and let to calibrate at room temperature (20-24° C.) for 20 min before taken the first measurement of total counts using saturating calcium solution (50 mM Tris-HCl, 100 mM CaCl2, pH 7.5). Samples were then incubated at two different temperatures (30 to 40° C.) for 30 min, and let equilibrate at room temperature for 15 minbefore taken the second measurement of total counts in the sample. The relative bioluminescence activity at each temperature was calculated by the ratio 2nd counts (at target T° C.)/1st counts (at initial T° C.) multiplied by 100.
Table 6 highlights the analysis of thermostability data obtained at two temperatures for aequorin and redquorin mutants, as well as CitA and GA. The values represent the degree of change in luminescence activity compared to wt-aeq, at each temperature. All values are relative to wt-aequorin (at each temperature) and were calculated by dividing the obtained data for each mutant/variant by the data for wt-aeq (as reference). The data were taken from FIG. 5.

[4] = background art; cited from earlier work
[5] = test system: endogenous P2Y2 receptor; experiment: Assay of activation of endogenous P2Y2 receptor by ATP in CHO cells stably expressing photoproteins; assay type: cell-based; conditions: CHO cells stably expressing the sensor; for EC50: ATP dose-response, read-out: EC50 (half-maximal effective concentration of ATP for P2Y2 activation)
Experimental: Stably prepared CHO cells were loaded with 5 μM coelenterazine in 130 mM NaCl, 5 mM KCl, 1 mM MgCl2, 2 mM CaCl2, 5 mM NaHCO3, 20 mM N-(2-hydroxyethyl) piperazine-N′-ethanesulfonic acid (HEPES), pH 7.4 for 4 h at ambient temperature.
To produce stable CHO cell lines, the cells transfected with GA and Redquorin variant plasmids were seeded on six-well plates and grown in the same medium with addition of Geneticin sulfate (G418) (Gibco, UK) at 1 mg/ml under the same conditions with replacement of the medium by fresh medium every 2 days. After 7-10 days of selection, CHO cells were transferred into a medium without antibiotic. To select clones with the highest bioluminescence activity, one run of limiting dilution was performed. CHO cells after G418 selection were seeded on 96-well plates (approximately 0.5 cells per well) and grown in DMEM/F12 medium supplemented with 10% fetal calf serum at 37° C., 5% CO2 for up to 80-90% confluence. Before the bioluminescence measurements, the plates with monoclones of CHO cells expressing the corresponding photoprotein were duplicated and grown for up to 90-100% confluence. Then, the medium was removed and cells were loaded with coelenterazine, and bioluminescence in each well was measured according to the procedure described earlier. As a result, the CHO cell clones with the highest bioluminescence activity were selected.
Assay of Activation of Endogenous P2Y2 Receptor in CHO Cells
The CHO cell lines stably expressing each photoprotein were used in assay of activation of endogenous P2Y2 receptor by ATP. The day before the measurements, the corresponding cells were seeded on 96-well plates with DMEM/F12 medium supplemented with 10% fetal calf serum and were grown at 37° C. with 5% CO2 for up to 90-100% confluence. Then, the medium was replaced by 100 μl of coelenterazine solution per well (5 μM coelenterazine in 130 mM NaCl, 5 mM KCl, 1 mM MgCl2, 2 mM CaCl2, 5 mM NaHCO3, 20 mM HEPES, pH7.4) and the cells were incubated at 23° C. for 4 h. Emission from photoproteins in the cells was measured using a Mithras LB 940 plate luminometer. The ATP was injected at a given concentration to trigger an intracellular Ca^2+ response in the cells and the measurement started immediately. The bioluminescence was integrated over a time interval of 0.05 s for 30 s.

[6] = CLZ-f, L/Lmax compared to Aeq-wt
[7] = CLZ-f, redquorin series, CitA, GA
[8] = CLZ-native, redquorin series, CitA, GA

Molecule	emission half-life (t½) [1]	Relative intensity at pCa 6.5 [2, 6]	Relative intensity at pCa 7.2 [2, 6]	EC50 ([2]; aequorin proteins reconstituted with CLZ-f, sigmoidal curve fit, mean ± SD, n at least 3)	Thermostability, luminescence activity relative to wt-aequorin ([3]; 30° C. for 30 min)	Thermostability, luminescence activity relative to wt-aequorin ([3]; 40° C. for 30 min)	affinity of aequorin for calcium [4]	EC50 [2, 7]	Relative intensity at pCa 6.5 ([2]; CLZ-f, relative to Redq)	Relative intensity at pCa 7.2 ([2]; CLZ-f, relative to Redq)	EC50 [2, 8]	Relative intensity at pCa 6.5 ([2]; CLZ-native, relative to Redq)	Relative intensity at pCa 7.2 ([2]; CLZ-native, relative to Redq)	[ATP] DL (detection limit) [5]	EC50 [5]
E35G: aequorin mutation from random mutagenesis reported by Tsuzuki et al. 2005 (protein) SKLTSDFDNPRWIGRHKHMFNFLDVNHNGKISLDGMVYKASDIVINNLGATPEQAKRHKDAVEAFFGGAGMKYGVETDWPAYIEGWKKLATDELEKYAKNEPTLIRIWGDALFDIVDKDQNGAITLDEWKAYTKAAGIIQSSEDCEETFRVCDIDESGQLDVDEMTRQHLGFWYTMDPACEKLYGGAVP	40 s														
V44A: aequorin mutant, valine 44 replaced by alanine (protein) SKLTSDFDNPRWIGRHKHMFNFLDVNHNGKISLDEMVYKASDIAINNLGATPEQAKRHKDAVEAFFGGAGMKYGVETDWPAYIEGWKKLATDELEKYAKNEPTLIRIWGDALFDIVDKDQNGAITLDEWKAYTKAAGIIQSSEDCEETFRVCDIDESGQLDVDEMTRQHLGFWYTMDPACEKLYGGAVP	34 s														
Aeq-wt: wild-type aequorin: apoaequorin of Aequorea victoria (SEQ ID NO:1) reconstituted with coelenterazine (protein, listed as Aequorea aequorea, reconstituted with coelenterazine; SITE (1)..(189) wild-type aequorin) SKLTSDFDNPRWIGRHKHMFNFLDVNHNGKISLDEMVYKASDIVINNLGATPEQAKRHKDAVEAFFGGAGMKYGVETDWPAYIEGWKKLATDELEKYAKNEPTLIRIWGDALFDIVDKDQNGAITLDEWKAYTKAAGIIQSSEDCEETFRVCDIDESGQLDVDEMTRQHLGFWYTMDPACEKLYGGAVP	0.8 s	1	1	659 ± 23 nM	1.00	1.00	around 1 μM								
Redq/QT + AD: aporedquorin mutant Q159T + A123D (SEQ ID NO:25) (protein, mutant aequorin) MVSKGEEVIKEFMRFKVRMEGSMNGHEFEIEGEGEGRPYEGTQTAKLKVTKGGPLPFAWDILSPQFMYGSKAYVKHPADIPDYKKLSFPEGFKWERVMNFEDGGLVTVTQDSSLQDGTLIYKVKMRGTNFPPDGPVMQKKTMGWEASTERLYPRDGVLKGEIHQALKLKDGGHYLVEFKTIYMAKKPVQLPGYYYVDTKLDITSHNEDYTIVEQYERSEGRHHLFLGHGTGSTGSGSSGTASSEDNNMAVIKEFMRFKVRMEGSMNGHEFEIEGEGEGRPYEGTQTAKLKVTKGGPLPFAWDILSPQFMYGSKAYVKHPADIPDYKKLSFPEGFKWERVMNFEDGGLVTVTQDSSLQDGTLIYKVKMRGTNFPPDGPVMQKKTMGWEASTERLYPRDGVLKGEIHQALKLKDGGHYLVEFKTIYMAKKPVQLPGYYYVDTKLDITSHNEDYTIVEQYERSEGRHHLFLSGFDNPRWIGRHKHMFNFLDVNHNGKISLDEMVYKASDIVINNLGATPEQAKRHKDAVEAFFGGAGMKYGVETDWPAYIEGWKKLATDELEKYAKNEPTLIRIWGDALFDIVDKDQNGDITLDEWKAYTKAAGIIQSSEDCEETFRVCDIDESGTLDVDEMTRQHLGFWYTMDPACEKLYGGAVP					0.94	1.00		336 ± 11 nM	14.4	7.4	577 ± 33 nM	14.4	10.0	1230 ± 51 nM	3100 ± 400 nM
Redq/QD + AT: aporedquorin mutant Q159D + A179T (SEQ ID NO:23) (protein, mutant aequorin) MVSKGEEVIKEFMRFKVRMEGSMNGHEFEIEGEGEGRPYEGTQTAKLKVTKGGPLPFAWDILSPQFMYGSKAYVKHPADIPDYKKLSFPEGFKWERVMNFEDGGLVTVTQDSSLQDGTLIYKVKMRGTNFPPDGPVMQKKTMGWEASTERLYPRDGVLKGEIHQALKLKDGGHYLVEFKTIYMAKKPVQLPGYYYVDTKLDITSHNEDYTIVEQYERSEGRHHLFLGHGTGSTGSGSSGTASSEDNNMAVIKEFMRFKVRMEGSMNGHEFEIEGEGEGRPYEGTQTAKLKVTKGGPLPFAWDILSPQFMYGSKAYVKHPADIPDYKKLSFPEGFKWERVMNFEDGGLVTVTQDSSLQDGTLIYKVKMRGTNFPPDGPVMQKKTMGWEASTERLYPRDGVLKGEIHQALKLKDGGHYLVEFKTIYMAKKPVQLPGYYYVDTKLDITSHNEDYTIVEQYERSEGRHHLFLSGFDNPRWIGRHKHMFNFLDVNHNGKISLDEMVYKASDIVINNLGATPEQAKRHKDAVEAFFGGAGMKYGVETDWPAYIEGWKKLATDELEKYAKNEPTLIRIWGDALFDIVDKDQNGAITLDEWKAYTKAAGIIQSSEDCEETFRVCDIDESGDLDVDEMTRQHLGFWYTMDPTCEKLYGGAVP					1.00	1.03		252 ± 40 nM	58.5	48.3	515 ± 20 nM	32.1	24.5	562 ± 20 nM	2000 nM
